# Experimental data reported in patent US6040149A, “Assay for identifying agents which act on the ceramide-activated protein kinase, kinase suppressor of ras, and methods of using said agents” (priority 1997, dated 2000).
# Where two headings read alike, the source gives them in different places.
# Assays:
# [1] = target: T1, KSR (Mus musculus, UniProt Q61097); assay: KSR activity toward Raf-1 peptides in vitro; type: biochemical, mouse (KSR immunoprecipitated from COS-7 cells); design: Raf-1 peptides as substrate
# T1 sequence (Q61097 1-873): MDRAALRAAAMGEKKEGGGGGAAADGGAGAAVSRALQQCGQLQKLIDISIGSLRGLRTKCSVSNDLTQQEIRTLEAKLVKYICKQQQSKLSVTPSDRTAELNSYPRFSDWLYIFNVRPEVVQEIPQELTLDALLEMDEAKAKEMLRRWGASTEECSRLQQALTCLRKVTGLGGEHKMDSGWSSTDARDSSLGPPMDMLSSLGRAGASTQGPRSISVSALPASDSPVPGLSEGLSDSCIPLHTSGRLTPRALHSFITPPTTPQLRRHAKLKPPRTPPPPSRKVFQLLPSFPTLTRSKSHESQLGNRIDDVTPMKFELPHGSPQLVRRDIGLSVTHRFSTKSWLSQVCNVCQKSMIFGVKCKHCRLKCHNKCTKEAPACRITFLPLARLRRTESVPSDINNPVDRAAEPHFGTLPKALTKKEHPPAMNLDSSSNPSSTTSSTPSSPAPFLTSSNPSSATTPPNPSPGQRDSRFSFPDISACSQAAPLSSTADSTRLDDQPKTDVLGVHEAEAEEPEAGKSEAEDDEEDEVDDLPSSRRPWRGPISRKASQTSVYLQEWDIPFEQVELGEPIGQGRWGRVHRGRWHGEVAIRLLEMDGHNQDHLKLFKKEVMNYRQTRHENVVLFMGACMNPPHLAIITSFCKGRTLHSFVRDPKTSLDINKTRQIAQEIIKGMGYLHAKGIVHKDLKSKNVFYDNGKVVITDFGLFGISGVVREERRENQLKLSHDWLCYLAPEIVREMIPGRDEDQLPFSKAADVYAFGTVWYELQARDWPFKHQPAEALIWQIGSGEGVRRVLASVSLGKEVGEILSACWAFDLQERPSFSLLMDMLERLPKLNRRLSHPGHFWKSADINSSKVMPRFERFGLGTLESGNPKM
# Method in brief: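 Flag-tagged KSR immunoprecipitated from COS-7 lysate, incubated with 0.3 mM Raf-1 TTLP peptide, 10 mM MnCl2, 5 μM ATP plus [γ-32P]ATP at 22 °C, with 30 nM ceramide or other lipids; P81 filter binding and Cerenkov counting, AALP-peptide background subtracted.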
# [2] = tested on: Raf-1; assay: Kinase activity of immunoprecipitated Raf-1 toward MEK1 after HL-60 cell stimulation; type: cell-based, human (HL-60 cells)
# Procedure: Recovery of MEK1 was monitored by western blot (Bottom Panel). Identical results were obtained with cells stimulated for 5 min with TNF.
# Recovery of MEK1 was monitored by western blot (Bottom Panel).
# These studies indicate that Raf-1 is a component of the sphingomyelin pathway mediating TNF action.
# MEK1 autophosphorylation was for 45 min. An autoradiogram of MEK1 phosphorylation (top panel) and recovery of MEK1 protein by western blot (bottom panel) are shown. For western blot, proteins separated by SDS-PAGE were electrotransferred to an Immobilon PVDF membrane at 12 volts overnight at 4° C. Membranes were then blocked with 2% BSA in TBS [20 mM Tris, pH 7.6, 137 mM NaCl] for 1 hr and washed with TBST (TBS containing 0.2% Tween-20).
# [3] = tested on: ceramide-activated protein kinase; conditions: for membrane-bound kinase activity, fold increase: TNF-α 30 nM
molecule,measurement,setting,value
"CCCCCCCCCCCCCC(=O)O[C@@H]1[C@@H](C)[C@@]2(O)[C@@H](C=C(CO)C[C@]3(O)C(=O)C(C)=C[C@@H]23)[C@@H]2C(C)(C)[C@]12OC(C)=O [TPA, 12-0-tetradecanoylphorbol-13-acetate]",effect on activation of KSR towards Raf-peptide,[1]; 30 nM,no effect
same,increase of Raf-1 activity,"[2]; TPA 100 ng/ml, 10 min, maximum",4 fold of control
CCCCCCCCCCCCC/C=C/[C@@H](O)[C@@H](N)CO [sphingosine],activation of KSR,[1],fail to activate KSR
same,effect on kinase activity in membranes of stimulated HL-60 cells,"[3]; cholera toxin 10 nM, retinoic acid 0.5 μM, butyrate 0.5 mM",similarly as effective as C8-cer
TNF-α,kinase activity of Raf-1 toward MEK1,[2]; HL-60 cells treated with TNF or ceramide analogs,10-20 fold
same,"kinase activity, fold of control","[3]; 3 pM TNF-α, 60 minutes",1.1 fold of control
same,"maximal kinase activity, fold of control","[3]; 30 nM TNF-α, 60 minutes",1.8 fold of control
same,ED50 for kinase activity,[3]; 60 minutes of stimulation,≈ 200 pM
same,"membrane-bound kinase activity, fold increase",[3]; 5 minutes,1.5 fold
same,"membrane-bound kinase activity, fold increase",[3]; 2 hours,2.2 fold
same,"membrane-bound kinase activity, fold increase","[3]; 2 hours, listed as TNF",2 fold
